Measurements published in patent US10562947B2, “Compositions and methods for preventing or treating diseases, conditions or processes characterized by aberrant fibroblast proliferation and extracellular matrix deposition” (MOERAE MATRIX, INC., priority 2011, dated 2020).
Where a SMILES comes first, the peptide text is derived from it.

Experiments:
Test in all cases: Kinase Profiling Assay
Assay type in all cases: biochemical
CaMKI(h) = CaMKI(h) (Homo sapiens, UniProt Q14012); conditions: for CaMKI(h) % activity: 100 μM peptide
Sequence of CaMKI(h) (Q14012 whole entry): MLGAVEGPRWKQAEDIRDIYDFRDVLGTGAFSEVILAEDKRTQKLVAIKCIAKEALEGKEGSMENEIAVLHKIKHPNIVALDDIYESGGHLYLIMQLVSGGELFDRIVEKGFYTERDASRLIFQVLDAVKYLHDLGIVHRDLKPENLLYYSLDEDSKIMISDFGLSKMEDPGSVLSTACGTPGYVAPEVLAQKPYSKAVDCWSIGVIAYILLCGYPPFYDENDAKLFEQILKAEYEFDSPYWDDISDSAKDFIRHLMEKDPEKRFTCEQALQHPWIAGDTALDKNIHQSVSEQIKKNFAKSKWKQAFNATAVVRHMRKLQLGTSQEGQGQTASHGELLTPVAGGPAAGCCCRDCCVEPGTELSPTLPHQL
In short: (§1)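 First, MK2 inhibitor peptides were applied to a panel of 266 human kinases; then each kinase's activity was measured in duplicate to assess off-target inhibition.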

AMPKα2(h) = AMPKα2(h) (Homo sapiens, UniProt P54646); conditions: 100 μM peptide
In short: as §1

HIPK1(h) = target: T1, HIPK1(h) (Homo sapiens, UniProt Q86Z02); conditions: 100 μM peptide
T1 construct: purchased Millipore
T1 sequence (Q86Z02 whole entry): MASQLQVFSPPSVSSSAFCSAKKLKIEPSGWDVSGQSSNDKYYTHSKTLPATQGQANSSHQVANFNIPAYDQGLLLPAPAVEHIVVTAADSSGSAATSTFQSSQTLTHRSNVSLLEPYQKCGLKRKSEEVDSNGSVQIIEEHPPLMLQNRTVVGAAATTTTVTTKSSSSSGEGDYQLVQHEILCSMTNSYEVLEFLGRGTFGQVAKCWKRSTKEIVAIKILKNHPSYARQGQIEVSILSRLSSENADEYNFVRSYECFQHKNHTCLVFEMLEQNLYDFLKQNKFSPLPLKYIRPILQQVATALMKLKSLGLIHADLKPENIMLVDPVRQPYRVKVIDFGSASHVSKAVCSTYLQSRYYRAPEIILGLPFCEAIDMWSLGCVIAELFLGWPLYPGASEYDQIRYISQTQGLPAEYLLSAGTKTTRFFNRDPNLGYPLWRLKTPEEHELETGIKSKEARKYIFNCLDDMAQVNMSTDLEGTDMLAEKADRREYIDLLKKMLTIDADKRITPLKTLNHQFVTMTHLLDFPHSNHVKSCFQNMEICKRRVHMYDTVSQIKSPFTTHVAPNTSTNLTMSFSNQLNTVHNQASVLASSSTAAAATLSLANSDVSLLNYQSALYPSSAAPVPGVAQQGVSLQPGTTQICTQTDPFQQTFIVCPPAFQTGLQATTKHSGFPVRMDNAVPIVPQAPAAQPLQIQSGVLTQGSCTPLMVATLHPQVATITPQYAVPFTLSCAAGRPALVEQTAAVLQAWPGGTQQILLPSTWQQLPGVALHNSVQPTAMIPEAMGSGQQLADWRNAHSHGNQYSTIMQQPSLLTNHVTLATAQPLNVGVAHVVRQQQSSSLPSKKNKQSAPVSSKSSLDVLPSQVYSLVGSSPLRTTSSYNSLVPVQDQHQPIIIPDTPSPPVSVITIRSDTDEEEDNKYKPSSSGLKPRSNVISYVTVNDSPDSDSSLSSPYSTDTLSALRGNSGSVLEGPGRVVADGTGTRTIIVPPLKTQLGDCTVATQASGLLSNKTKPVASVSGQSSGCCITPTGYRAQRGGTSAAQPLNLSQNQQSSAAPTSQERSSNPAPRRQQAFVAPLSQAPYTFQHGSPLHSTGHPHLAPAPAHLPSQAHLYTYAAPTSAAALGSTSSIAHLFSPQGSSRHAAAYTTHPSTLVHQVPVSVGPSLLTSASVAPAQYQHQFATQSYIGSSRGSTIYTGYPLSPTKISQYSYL
In short: as §1

HIPK2(h) = target: T2, HIPK2(h) (Homo sapiens, UniProt Q9H2X6); conditions: 100 μM peptide
T2 construct: purchased Millipore
T2 sequence (Q9H2X6 whole entry): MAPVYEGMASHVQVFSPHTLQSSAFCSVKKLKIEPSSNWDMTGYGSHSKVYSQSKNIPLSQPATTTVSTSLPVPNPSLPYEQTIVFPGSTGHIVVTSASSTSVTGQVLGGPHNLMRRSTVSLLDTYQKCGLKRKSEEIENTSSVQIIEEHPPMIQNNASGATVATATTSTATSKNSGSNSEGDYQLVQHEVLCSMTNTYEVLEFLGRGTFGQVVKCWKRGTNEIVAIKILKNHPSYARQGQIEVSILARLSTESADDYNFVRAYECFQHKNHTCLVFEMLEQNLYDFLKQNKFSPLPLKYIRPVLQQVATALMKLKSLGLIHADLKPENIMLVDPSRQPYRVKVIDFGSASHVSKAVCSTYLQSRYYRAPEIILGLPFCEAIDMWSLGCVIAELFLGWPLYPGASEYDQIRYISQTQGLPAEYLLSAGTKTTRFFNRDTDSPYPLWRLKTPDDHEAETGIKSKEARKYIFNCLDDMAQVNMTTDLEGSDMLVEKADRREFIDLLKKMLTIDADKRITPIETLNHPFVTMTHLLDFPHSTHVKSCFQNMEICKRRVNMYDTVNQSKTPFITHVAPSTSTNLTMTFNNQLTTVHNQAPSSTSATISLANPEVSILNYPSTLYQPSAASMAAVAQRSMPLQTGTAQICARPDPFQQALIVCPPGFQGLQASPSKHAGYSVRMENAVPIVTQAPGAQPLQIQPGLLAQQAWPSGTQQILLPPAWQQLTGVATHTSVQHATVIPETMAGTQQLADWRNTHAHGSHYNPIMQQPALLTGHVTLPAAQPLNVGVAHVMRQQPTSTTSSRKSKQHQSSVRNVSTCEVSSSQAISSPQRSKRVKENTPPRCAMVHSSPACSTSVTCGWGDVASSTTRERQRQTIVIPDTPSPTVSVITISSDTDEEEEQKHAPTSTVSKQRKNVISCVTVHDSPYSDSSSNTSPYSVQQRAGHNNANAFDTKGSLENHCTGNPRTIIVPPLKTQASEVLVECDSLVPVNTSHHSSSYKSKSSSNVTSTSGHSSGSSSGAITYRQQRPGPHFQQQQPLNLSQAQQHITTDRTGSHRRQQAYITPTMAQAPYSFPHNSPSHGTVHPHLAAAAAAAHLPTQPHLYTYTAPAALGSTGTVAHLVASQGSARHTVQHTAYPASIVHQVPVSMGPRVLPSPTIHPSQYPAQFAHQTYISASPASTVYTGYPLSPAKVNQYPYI
In short: as §1

IRAK4(h) = target: T3, IRAK4(h) (Homo sapiens, UniProt Q9NWZ3); conditions: 100 μM peptide
T3 construct: purchased Millipore
T3 sequence (Q9NWZ3 1-460): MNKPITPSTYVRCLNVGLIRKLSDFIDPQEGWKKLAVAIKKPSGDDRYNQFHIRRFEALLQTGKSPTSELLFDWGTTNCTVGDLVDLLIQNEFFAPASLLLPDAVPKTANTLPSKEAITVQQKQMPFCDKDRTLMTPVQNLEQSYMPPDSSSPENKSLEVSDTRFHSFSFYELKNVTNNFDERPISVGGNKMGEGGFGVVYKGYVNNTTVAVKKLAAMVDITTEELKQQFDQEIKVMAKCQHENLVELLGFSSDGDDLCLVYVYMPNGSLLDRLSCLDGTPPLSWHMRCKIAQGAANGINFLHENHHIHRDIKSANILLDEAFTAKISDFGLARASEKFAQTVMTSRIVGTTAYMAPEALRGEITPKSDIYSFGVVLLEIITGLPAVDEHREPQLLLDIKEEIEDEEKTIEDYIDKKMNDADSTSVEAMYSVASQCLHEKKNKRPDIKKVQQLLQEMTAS
In short: as §1

JNK3(h) = JNK3(h) (Homo sapiens, UniProt P53779); conditions: 100 μM peptide
Sequence of JNK3(h) (P53779 whole entry): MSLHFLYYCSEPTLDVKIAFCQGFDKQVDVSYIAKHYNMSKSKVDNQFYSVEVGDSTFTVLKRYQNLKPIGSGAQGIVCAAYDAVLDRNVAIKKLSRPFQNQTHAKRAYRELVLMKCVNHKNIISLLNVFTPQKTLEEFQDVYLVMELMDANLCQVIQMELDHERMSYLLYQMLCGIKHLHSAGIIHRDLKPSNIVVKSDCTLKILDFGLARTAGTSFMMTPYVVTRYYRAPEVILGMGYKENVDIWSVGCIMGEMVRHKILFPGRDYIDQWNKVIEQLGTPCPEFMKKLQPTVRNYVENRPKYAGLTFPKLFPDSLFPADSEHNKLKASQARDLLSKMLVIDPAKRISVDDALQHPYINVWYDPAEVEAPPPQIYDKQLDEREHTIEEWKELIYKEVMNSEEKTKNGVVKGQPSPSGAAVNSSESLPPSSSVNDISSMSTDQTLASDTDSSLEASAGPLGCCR
In short: as §1

NEK11(h) = target: T4, NEK11(h) (Homo sapiens, UniProt Q8NG66); conditions: 100 μM peptide
T4 sequence (Q8NG66 1-645): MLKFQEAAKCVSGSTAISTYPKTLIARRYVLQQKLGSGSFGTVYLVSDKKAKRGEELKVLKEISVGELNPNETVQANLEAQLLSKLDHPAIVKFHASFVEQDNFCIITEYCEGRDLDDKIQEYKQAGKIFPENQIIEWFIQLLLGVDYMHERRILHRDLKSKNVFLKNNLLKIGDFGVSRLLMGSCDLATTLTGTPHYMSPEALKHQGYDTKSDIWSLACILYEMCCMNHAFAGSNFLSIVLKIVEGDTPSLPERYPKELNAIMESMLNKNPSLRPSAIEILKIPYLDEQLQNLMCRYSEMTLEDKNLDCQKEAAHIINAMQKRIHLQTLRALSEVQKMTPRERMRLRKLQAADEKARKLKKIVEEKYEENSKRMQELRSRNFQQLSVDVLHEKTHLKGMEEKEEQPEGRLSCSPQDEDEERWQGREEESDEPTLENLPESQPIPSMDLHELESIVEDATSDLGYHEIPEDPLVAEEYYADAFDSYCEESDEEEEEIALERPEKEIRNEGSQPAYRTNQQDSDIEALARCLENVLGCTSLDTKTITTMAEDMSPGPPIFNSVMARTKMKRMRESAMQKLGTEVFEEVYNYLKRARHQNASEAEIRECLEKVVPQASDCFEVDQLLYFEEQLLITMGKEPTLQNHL
In short: as §1

NLK(h) = target: T5, NLK(h) (Homo sapiens, UniProt Q9UBE8); conditions: 100 μM peptide
T5 sequence (Q9UBE8 1-527): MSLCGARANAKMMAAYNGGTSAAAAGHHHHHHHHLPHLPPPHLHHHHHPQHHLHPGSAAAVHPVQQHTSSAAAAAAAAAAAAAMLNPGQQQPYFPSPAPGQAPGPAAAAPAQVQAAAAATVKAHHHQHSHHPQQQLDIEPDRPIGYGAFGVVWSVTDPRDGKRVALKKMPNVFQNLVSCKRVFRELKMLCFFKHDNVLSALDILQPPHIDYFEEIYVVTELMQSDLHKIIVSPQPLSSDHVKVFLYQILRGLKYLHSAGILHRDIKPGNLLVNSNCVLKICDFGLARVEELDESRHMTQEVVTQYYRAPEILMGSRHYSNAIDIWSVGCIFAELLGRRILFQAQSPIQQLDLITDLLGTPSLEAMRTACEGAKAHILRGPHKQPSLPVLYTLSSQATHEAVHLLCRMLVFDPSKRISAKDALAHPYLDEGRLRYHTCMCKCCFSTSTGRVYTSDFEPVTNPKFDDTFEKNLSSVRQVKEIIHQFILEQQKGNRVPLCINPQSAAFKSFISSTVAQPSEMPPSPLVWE
In short: as §1

cKit(D816H)(h) = cKit(D816H)(h) (Homo sapiens, UniProt P10721, D816H); conditions: 100 μM peptide
In short: as §1

TLK2(h) = TLK2(h) (Homo sapiens, UniProt Q86UE8); conditions: 100 μM peptide
Sequence of TLK2(h) (Q86UE8 whole entry): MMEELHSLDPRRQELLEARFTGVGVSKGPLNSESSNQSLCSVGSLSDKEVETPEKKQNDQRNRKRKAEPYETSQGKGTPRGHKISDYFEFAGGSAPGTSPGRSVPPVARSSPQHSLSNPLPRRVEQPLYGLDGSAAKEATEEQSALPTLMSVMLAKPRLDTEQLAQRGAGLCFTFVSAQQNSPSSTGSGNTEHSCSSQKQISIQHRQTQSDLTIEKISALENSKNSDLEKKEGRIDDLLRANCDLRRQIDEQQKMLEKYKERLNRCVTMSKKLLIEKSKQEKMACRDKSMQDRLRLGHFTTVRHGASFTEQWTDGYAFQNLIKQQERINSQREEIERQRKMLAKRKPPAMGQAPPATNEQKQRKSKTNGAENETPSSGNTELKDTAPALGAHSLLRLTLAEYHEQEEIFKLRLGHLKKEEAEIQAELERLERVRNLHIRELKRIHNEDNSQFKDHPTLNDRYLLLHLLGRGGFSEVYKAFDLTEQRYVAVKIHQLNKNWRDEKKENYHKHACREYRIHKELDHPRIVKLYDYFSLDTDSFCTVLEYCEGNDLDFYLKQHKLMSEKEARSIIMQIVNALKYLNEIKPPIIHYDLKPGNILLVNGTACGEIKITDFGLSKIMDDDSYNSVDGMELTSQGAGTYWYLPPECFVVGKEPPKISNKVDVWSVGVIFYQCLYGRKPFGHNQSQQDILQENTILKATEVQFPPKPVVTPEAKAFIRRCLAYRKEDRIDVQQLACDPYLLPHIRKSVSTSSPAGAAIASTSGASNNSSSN
In short: as §1

Compound | inhibition at 100 µM (CaMKI(h); read-out: inhibition of kinase activity of CaMKI) | AMPKα2(h) % activity (AMPKα2(h)) | CaMKI(h) % activity (CaMKI(h)) | HIPK1(h) % activity (HIPK1(h)) | HIPK2(h) % activity (HIPK2(h)) | IRAK4(h) % activity (IRAK4(h)) | JNK3(h) % activity (JNK3(h)) | NEK11(h) % activity (NEK11(h)) | NLK(h) % activity (NLK(h)) | cKit(D816H)(h) % activity (cKit(D816H)(h)) | TLK2(h) % activity (TLK2(h))
CC(C)C[C@H](NC(=O)[C@H](C)NC(=O)[C@H](CCCCN)NC(=O)[C@H](C)NC(=O)[C@H](CCCNC(=N)N)NC(=O)[C@H](C)NC(=O)[C@H](CCC(N)=O)NC(=O)[C@H](CCCNC(=N)N)NC(=O)[C@H](C)NC(=O)[C@H](C)NC(=O)[C@H](C)NC(=O)[C@H](CCCNC(=N)N)NC(=O)[C@H](C)NC(=O)[C@@H](N)Cc1ccc(O)cc1)C(=O)N[C@@H](C)C(=O)N[C@@H](CCCNC(=N)N)C(=O)N[C@@H](CCC(N)=O)C(=O)N[C@@H](CC(C)C)C(=O)NCC(=O)N[C@H](C(=O)N[C@@H](C)C(=O)N[C@@H](C)C(=O)O)C(C)C [MMI-0100] (H-YARAAARQARAKALARQLGVAA-OH; N-terminus and C-terminus assumed) | > 65% | – | – | – | – | – | – | – | – | – | –
FAKLAARLYRKALARQLGVAA [MMI-0300] | – | 54% | 1% | 74% | 73% | 59% | 89% | 53% | 87% | 126% | –
HRRIKAWLKKIKALARQLGVAA (Mammalian) [MMI-0500] | – | 9% | −1% | 47% | 38% | 3% | 171% | 2% | 19% | 194% | 133%
KAFAKLAARLYRKALARQLGVAA [MMI-0400] | – | 58% | 0% | 91% | 90% | 59% | 70% | 33% | 90% | 143% | 151%
YARAAARQARAKALNRQLGVA (Mammalian) [MMI-0200] | – | 88% | 21% | – | – | 110% | 90% | 95% | – | – | 129%
